{
  "source": "paper PMC9896810",
  "about": "“Crk proteins activate the Rap1 guanine nucleotide exchange factor C3G by segregated adaptor-dependent and -independent mechanisms” (Cell Communication and Signaling : CCS, 2023)",
  "binders": {"B1": {"name": "CrkL-SH3N (domain or fragment, human, UniProt P46109 125-182, looked up)", "chain": "LEYVRTLYDFPGNDAEDLPFKKGEILVIIEKPEEQWWSARNKDGRVGMIPVPYVEKLV", "notes": "human CrkL, SH3N domain, residues 125-182, in pETEV15b; source: E. coli BL21 (DE3), purified (IMAC, TEV digestion, SEC); not shown: His, N-terminal, cleaved"}},
  "key": {"[1]": {"molecular_target": "T1, Src-phosphorylated C3G-AAPA (human, UniProt Q13905-1 4-1077, P283A | P284A | L286 | P287 | P289A | P453A | P454A | L456A | P457A | K459A | …, phosphotyrosines from phosphorylation in vitro with Src (sites not given))", "T1 construct": "human C3G isoform a, residues 4-1077; only P3 kept, P1, P2 and P4 mutated to Ala; also called pC3G-AAPA; source: E. coli BL21 (DE3), purified; phosphorylated in vitro with the recombinant kinase domain of Src, then SEC; not shown: His, N-terminal, cleaved; Halo, N-terminal, cleaved", "T1 sequence (looked up)": "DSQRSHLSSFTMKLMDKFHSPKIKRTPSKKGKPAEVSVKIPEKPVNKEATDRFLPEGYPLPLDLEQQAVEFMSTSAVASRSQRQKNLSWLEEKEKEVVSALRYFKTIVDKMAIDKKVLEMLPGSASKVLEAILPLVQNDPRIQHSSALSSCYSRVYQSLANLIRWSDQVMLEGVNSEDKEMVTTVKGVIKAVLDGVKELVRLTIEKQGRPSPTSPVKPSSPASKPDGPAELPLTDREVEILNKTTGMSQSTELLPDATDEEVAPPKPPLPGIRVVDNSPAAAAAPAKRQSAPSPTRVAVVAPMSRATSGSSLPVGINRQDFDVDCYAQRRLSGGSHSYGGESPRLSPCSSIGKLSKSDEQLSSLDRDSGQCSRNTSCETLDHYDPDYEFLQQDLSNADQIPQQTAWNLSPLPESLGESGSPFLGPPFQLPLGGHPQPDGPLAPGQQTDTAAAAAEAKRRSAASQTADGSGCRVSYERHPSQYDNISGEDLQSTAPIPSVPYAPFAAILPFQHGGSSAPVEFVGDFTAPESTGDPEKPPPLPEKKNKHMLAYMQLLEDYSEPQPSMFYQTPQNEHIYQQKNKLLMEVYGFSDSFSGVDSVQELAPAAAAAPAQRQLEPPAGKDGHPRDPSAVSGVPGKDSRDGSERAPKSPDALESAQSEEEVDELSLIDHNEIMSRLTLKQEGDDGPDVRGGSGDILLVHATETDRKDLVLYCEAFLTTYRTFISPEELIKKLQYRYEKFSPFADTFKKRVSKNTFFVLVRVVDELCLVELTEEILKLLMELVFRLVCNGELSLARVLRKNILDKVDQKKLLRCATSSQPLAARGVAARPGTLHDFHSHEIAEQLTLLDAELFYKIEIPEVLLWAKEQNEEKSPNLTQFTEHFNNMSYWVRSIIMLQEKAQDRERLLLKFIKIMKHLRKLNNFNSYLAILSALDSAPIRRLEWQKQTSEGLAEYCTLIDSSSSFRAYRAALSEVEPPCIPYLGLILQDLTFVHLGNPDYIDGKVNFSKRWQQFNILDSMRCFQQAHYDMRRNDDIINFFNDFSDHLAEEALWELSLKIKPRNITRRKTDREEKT", "assay": "ITC; single-PRM mutant of C3G in the cell titrated with CrkL or CrkL-SH3N, 25 °C, 300 mM NaCl, pH 7.5; SEDPHAT, 1:1 heteroassociation model; N is the competent fraction of C3G", "details": "both partners purified"}, "[2]": {"molecular_target": "T2, Src-phosphorylated C3G-AAAP (human, UniProt Q13905-1 4-1077, P283A | P284A | L286 | P287 | P289A | P453A | P454A | L456A | P457A | K459A | …, phosphotyrosines from phosphorylation in vitro with Src (sites not given))", "T2 construct": "human C3G isoform a, residues 4-1077; only P4 kept, P1, P2 and P3 mutated to Ala; also called pC3G-AAAP; source: E. coli BL21 (DE3), purified; phosphorylated in vitro with the recombinant kinase domain of Src, then SEC; not shown: His, N-terminal, cleaved; Halo, N-terminal, cleaved", "T2 sequence (looked up)": "T1 sequence (looked up) with P537A, P538A, L540A, P541A, K543A, A605P, A606P, A608L, A609P, A611K", "assay": "ITC; single-PRM mutant of C3G in the cell titrated with CrkL or CrkL-SH3N, 25 °C, 300 mM NaCl, pH 7.5; SEDPHAT, 1:1 heteroassociation model; N is the competent fraction of C3G", "details": "both partners purified"}},
  "note": "Changes are numbered by the printed parent chain.",
  "data": [
    {"binder": "B1", "values": [
      {"measurement": "Kd", "setting": "[1]", "result": 2.1, "unit": "µM"},
      {"measurement": "stoichiometry N", "setting": "[1]", "result": 0.08},
      {"measurement": "Kd", "setting": "[2]", "result": 2.4, "unit": "µM"},
      {"measurement": "stoichiometry N", "setting": "[2]", "result": 0.74}
    ]}
  ]
}
